Reference: US20240368239A1, “Novel bispecific protein and use thereof” (SL METAGEN, priority 2020, published 2024)
“Also recorded” adds a separate entry of the source.

What was measured:
[1] = test system: B6 normal mice; experiment: MG12 vs. GLP-1 and GLP-2 combo: body weight and small intestine changes; type: in vivo; conditions: 12 days SC
Protocol: In particular, in order to observe changes in body weight and the small intestine following the substance administration, an experiment was conducted in B6 normal mice. […] After starting drug administration twice a week during the test period, feed intake was measured and expressed as cumulative feed intake, and pre-autopsy body weight was measured to calculate the body weight vs. feed intake. After the autopsy, the weight of the small intestine, and mucosal depth and villus height of the duodenum and the jejunum were measured. More specifically, after the autopsy, the entire gastrointestinal tract of the mouse was separated, the mesentery and the pancreas were excised, and the area where the ileum and the cecum meet was cut to separate the small intestine and the large intestine.

[2] = test system: Balb/c-nude mice; experiment: PET-MRI tissue distribution of Zr89-labelled proteins; type: in vivo; conditions: Zr89 label, SC
Description: Next, the present inventors performed an experiment in Balb/c-nude mice in order to observe the distribution in each tissue organ following the administration of a substance. Zr^89 was used as a radiotracer for tracking the distribution after administration of each substance. Each substance to be administered was labeled with Zr^89 as a reaction condition and a chelator selected through a preliminary test. The labeled Zr^89-protein was purified using a PD-10 column, and Zr^89 labeling efficiency and purity were confirmed using Radio TLC and SEC-HPLC. The labeling efficiency of the Zr^89-protein of 90% or more and the purity of 80% or more were determined to be appropriate, and the labeled protein was administered subcutaneously at 0.2 mCi/0.2 cc. Each administration substance was administered to three animals and static images for 20 minutes were obtained using PET-MRI at 1 hour, 6 hours, 24 hours, 48 hours, and 168 hours after injection. Through image analysis, the distribution of drugs as a function of time in the liver, small intestine, and large intestine was expressed as SUV (Standardized Uptake Value) and comparatively analyzed.

[3] = In vivo pharmacokinetics profile after subcutaneous administration (GLP-1-Fc ELISA and GLP-2-Fc ELISA); parameters: species or system male SD (Sprague Dawley) rats; conditions: for AUClast / Cmax / Half-life / Tmax: 1 mg/kg SC
Protocol: First, each protein was administered to 3 male SD (Sprague Dawley) rats per group at a dose of 1 mg/kg by subcutaneous (SC) route. Before injection and after 0.5, 1, 5, 10, 24, 48, 72, 120, and 168 hours after the injection, blood was collected and stored at room temperature for 30 minutes to aggregate. After centrifuging the aggregated blood at 3,000 rpm for 10 minutes, serum of each sample was collected and stored in a cryogenic freezer. Analyses were performed by an assay designed to specifically detect the GLP-1 site and Fc in the administered protein (GLP-1-Fc ELISA) and an assay designed to specifically detect the GLP-2 site and Fc in the administered protein (GLP-2-Fc ELISA). Specifically, a method of loading a biological sample on a plate coated with an antibody that binds to mouse-derived human immunoglobulin G4 (IgG4) to detect the target protein using a biotinylated anti-GLP-1 antibody (GLP-1-Fc ELISA), and a method of loading a biological sample on a plate coated with a monoclonal antibody that specifically reacts with GLP-2, to detect the target protein using a secondary antibody having HRP conjugated to mouse-derived human immunoglobulin G4 (IgG4) (GLP-2-Fc ELISA) were used. The obtained and prepared serum samples were loaded with appropriate dilutions to be analyzed at a position on a straight line of the standard curve.

[4] = test system: B6 normal mice; experiment: Small intestine changes and nutrient absorption changes (GLP-2-2G, GLP-2-Fc homodimer, MG12-5); type: in vivo
Protocol: In order to observe changes in the small intestine and nutrient absorption capacity following substance administration, an experiment was conducted in B6 normal mice. PBS and GLP-2-2G were administered twice a day, and GLP-2-Fc homodimer and MG12-5 were administered once every three days for 2 weeks. For the GLP-2-Fc homodimer and MG12-5 groups, PBS was administered twice a day, as was in the other administration groups, during the period when no drug was administered. Body weight and dietary intake were monitored at 3-day intervals, and feces were collected before administration, on days 5-6 after administration, and on days 11-12 after administration, and calorimetry was performed using a bomb calorimeter, and also, feed ingested during this period was also subjected to calorimetry through the same analysis. The energy absorption rate was defined as a value obtained by subtracting the calorific value of feces from the caloric value of ingested feed. On day 14 following drug administration, the experimental animals were sacrificed and the small intestine (pylorus ileum) was weighed.

[5] = test system: C57BL/6J male mice on CD-HFD; experiment: Choline-deficient high-fat diet (CD-HFD) metabolic syndrome model; type: in vivo
Description: To this end, in particular, with respect to experimental animals induced with fatty liver and steatohepatitis through high-fat diet, as shown in FIG. 13a and Table 8, the present inventors performed a choline-deficient high-fat diet ([…]) for 12 weeks using 8-week-old C57BL/6J male mice, and then 20 nmol/kg of MG12-5, MG12-8, and each of 10 nmol/kg of GLP-1 and GLP-2 combination (combo) were administrated twice subcutaneously twice to experimental animals respectively, along with a CD-HFD diet for 4 weeks, and various serological and histological analyses were performed.
First, the present inventors recorded changes in body weight and food intake of experimental animals during the experiment period.
As described above, after 16 weeks on CD-HFD, mice treated with drugs (MG12-5, MG12-8, and GLP-1 and GLP-2 combo) twice a week for 4 weeks, after food restriction 12 hours, were intraperitoneally administered with glucose at a dose of 2 g/kg, and changes in blood glucose level were measured at a time interval for a total of 3 hours. […] FIG. 14b is a graph showing the area under the curve related to changes in blood glucose level.
The present inventors sacrificed and extracted liver tissues from a mouse having completed the drug administration experiment as described above, and captured photographs thereof to examine changes in the size and color of the liver tissues, and measured the weight of the extracted liver tissues as well as ALT blood level, which is a measure of hepatotoxicity level.

[6] = 20 nmol/kg SC, 4 weeks with CD-HFD
[7] = excised liver at end of experiment

B1: MG12-5: Knob/hole Fc heterodimer: GLP-1/Exendin 4 hybrid (SEQ 5), unmodified linker, first fusion protein SEQ 28; GLP-2 (SEQ 17), second fusion protein SEQ 34 (protein)
chain 1: HGEGTFTSDVSSYLEGQAAKEFIAWLVKGGPSSGAPPPSGGGGSGGGGSGGGGSEKEKEEQEERTHTCPPCPSHTQPLGVFLFPPKPKDQLMISRTPEVTCVVVDVSQEDPEVQFNWYVDGVEVHNAKTKPREEQFNSTYRVVSVLTVLHQDWLNGKEYKCKVSNKGLPSSIEKTISKAKGQPREPQVYTLPPCQEEMTKNQVSLWCLVKGFYPSDIAVEWESNGQPENNYKTTPPVLDSDGSFFLYSRLTVDKSRWQEGNVFSCSVLHEALHNHYTQKSLSLSLGK
chain 2: HGDGSFSDEMNTILDNLAARDFINWLIQTKITDGGGGSGGGGSGGGGSEKEKEEQEERTHTCPPCPSHTQPLGVFLFPPKPKDQLMISRTPEVTCVVVDVSQEDPEVQFNWYVDGVEVHNAKTKPREEQFNSTYRVVSVLTVLHQDWLNGKEYKCKVSNKGLPSSIEKTISKAKGQPREPQVCTLPPSQEEMTKNQVSLSCAVKGFYPSDIAVEWESNGQPENNYKTTPPVLDSDGSFFLVSRLTVDKSRWQEGNVFSCSVLHEALHNHYTQKSLSLSLGK
body weight increase vs. feed intake ([1]; normalized to cumulative feed intake): statistically significant body weight increase compared to the co-administered group
small intestine weight ([1]; Ex-4 10 nmol/kg, others 33.3 nmol/kg): statistically significant increase in the small intestine compared to the co-administered group
distribution to the liver (SUV) [2]: reduced or showed no difference compared to Fc
distribution to the small intestine and large intestine (SUV) [2]: significantly high compared to that of GLP-1-Fc homodimer and GLP-2-Fc homodimer
terminal half-life, rank among MG12-1, 3, 4 and 5 ([3]; GLP-2-Fc ELISA): shortest half-life
Cmax, rank among MG12-1, 3, 4 and 5 ([3]; both ELISA methods): highest value
AUClast ([3]; rat, GLP-1-Fc ELISA (Table 5)): 26.0596 ± 3.0285 µg·h/mL
Cmax ([3]; rat, GLP-1-Fc ELISA (Table 5)): 1036.2 ± 59.5 ng/mL
Half-life ([3]; rat, GLP-1-Fc ELISA (Table 5)): 18.4 ± 6.2 h
Tmax ([3]; rat, GLP-1-Fc ELISA (Table 5)): 10 h
AUClast ([3]; rat, GLP-2-Fc ELISA (Table 6)): 188.7416 ± 7.8705 µg·h/mL
Cmax ([3]; rat, GLP-2-Fc ELISA (Table 6)): 3201.3 ± 95.6 ng/mL
Half-life ([3]; rat, GLP-2-Fc ELISA (Table 6)): 30.6 ± 2.1 h
Tmax ([3]; rat, GLP-2-Fc ELISA (Table 6)): 24.0 ± 0.0 h
AUClast, rank among MG12-1, 3, 4 and 5 ([3]; rat, SC): highest
body weight ([4]; 2 weeks dosing): an increase significant compared to the negative control group; also recorded: statistically significant body weight increase compared to other drug administered groups
energy absorption rate ([4]; Week 1, after the second dose): statistically significant increase compared to the vehicle-administered group
energy absorption rate ([4]; Week 2, after the fourth dose): an increase even more significant than GLP-2-Fc homo
small intestine weight ([4]; day 14, 2 weeks dosing): most notable increase in the small intestine weight; also recorded: statistically significant increase compared to the other two drug administered group; also recorded: superior effect of increasing small intestine weight to GLP-2-2G and GLP-2-Fc homodimer
body weight (relative change) [5, 6]: greater relative body weight reduction effect
feed intake [5, 6]: lower feed intake
blood ALT level ([5]; after 16 weeks of CD-HFD diet): decrease in ALT level to a level similar to that of the normal diet group
liver color [5, 7]: liver color similar to that of the normal diet group
liver weight [5, 7]: reduced
blood glucose level, intraperitoneal glucose tolerance test ([5]; glucose 2 g/kg i.p. after 12 hours food restriction, 3 hours): statistically significant decrease in blood glucose level
area under the curve of the change in blood glucose level ([5]; intraperitoneal glucose tolerance test): decreased two times or more
